Measurements from the Immune Epitope Database (IEDB).

Columns and labels:
Conditions in all cases: source organism: Influenza A virus (A/Puerto Rico/8/1934(H1N1))
[1] = target: HLA-A*02:01; test: IEDB peptide-MHC binding, purified MHC/competitive/radioactivity; ≥ and ≤ were set here for values at or beyond the usual limits of such assays
[2] = target: HLA-B*07:02; test: as above
[3] = target: HLA-A*11:01; test: as above
[4] = target: HLA-A*03:01; test: as above
[5] = target: HLA-A*31:01; test: as above
[6] = target: HLA-A*68:01; test: IEDB peptide-MHC binding, purified MHC/competitive/radioactivity; filed as Kd, often an IC50 or EC50 that approximates it; ≥ and ≤ were set here for values at or beyond the usual limits of such assays
[7] = target: HLA-A*68:01; test: IEDB peptide-MHC binding, purified MHC/competitive/radioactivity; ≥ and ≤ were set here for values at or beyond the usual limits of such assays
[8] = target: HLA-A*33:01; test: IEDB peptide-MHC binding, purified MHC/competitive/radioactivity; filed as Kd, often an IC50 or EC50 that approximates it; ≥ and ≤ were set here for values at or beyond the usual limits of such assays
[9] = target: HLA-A*33:01; test: IEDB peptide-MHC binding, purified MHC/competitive/radioactivity; ≥ and ≤ were set here for values at or beyond the usual limits of such assays

| Sequence | IC50 [1] [nM] | IC50 [2] [nM] | further results |
| --- | --- | --- | --- |
| ALKMTMASV | 225 |  |  |
| APPKQSRMQF |  | 24 |  |
| APSPYNSRF |  | 19.2 |  |
| AVGKEFNKLEK |  |  | IC50 [3]: 130 nM |
| CIYRRFKYFLK |  |  | IC50 [3]: 231 nM |
| CLLQSLQQI | 159 |  |  |
| CPKYVRSAKL |  | 344 |  |
| FLWHVRKRV | 204 |  |  |
| FPNEVGARIL |  | 365 |  |
| FPSSSYRRPV |  | 20.9 |  |
| GIAPLQLGK |  |  | IC50 [4]: 18 nM; IC50 [5]: 281 nM; IC50 [3]: 30 nM; Kd [6]: 1180 nM |
| GIHHPSNSK |  |  | IC50 [3]: 429 nM |
| GMFNMLSTV | 28 |  |  |
| GMGWLTIGI | 133 |  |  |
| GPALSINEL |  | 119 |  |
| GPDNGAVAVL |  | 498 |  |
| GPPCSQRSKF |  | 270 |  |
| GPVHFRNQV |  | 71.4 |  |
| GTHPSSSAGLK |  |  | IC50 [3]: 94 nM |
| ILWILDRLFFK |  |  | IC50 [3]: 21 nM |

| Sequence | IC50 [1] [nM] | IC50 [2] [nM] | further results |
| --- | --- | --- | --- |
| IPKQKVAGPL |  | 42.4 |  |
| ITNKVNSVIEK |  |  | IC50 [3]: 90 nM |
| KLESMGIYQI | 434 |  |  |
| KMNIQFTAV | 150 |  |  |
| KTRPILSPLTK |  |  | IC50 [3]: 120 nM |
| LILRGSVAHK |  |  | IC50 [3]: 188 nM |
| LLLEVEQEI | 213 |  |  |
| LLTEVETPI | 24 |  |  |
| LMDALKLSI | 40 |  |  |
| LPACVYGPAV |  | 220 |  |
| LPRRSGAAGA |  | 76.3 |  |
| LPSLPGHTA |  | 41 |  |
| LPVRSWSYIV |  | 207 |  |
| MLSTVLGVSI | 252 |  |  |
| NIQFTAVGK |  |  | IC50 [3]: 182 nM |
| NLYNIRNLHI | 61 |  |  |
| NPALRMKWM |  | 59.5 |  |
| NPRMFLAMI |  | 10.1 |  |
| RMNYYWTLLK |  |  | IC50 [3]: 2.6 nM |
| RMQFSSFTV | 28 |  |  |

| Sequence | IC50 [1] [nM] | IC50 [2] [nM] | further results |
| --- | --- | --- | --- |
| RPCFWVELI |  | 67.1 |  |
| RPWVSFDQNL |  | 397 |  |
| RTLDFHDSNVK |  |  | IC50 [7]: 2290 nM; IC50 [4]: 141 nM; IC50 [5]: 1500 nM; IC50 [3]: 50 nM; Kd [8]: 6300 nM |
| RVLSFIKGTK |  |  | IC50 [7]: 471 nM; IC50 [4]: 13.8 nM; IC50 [9]: 1320 nM; IC50 [5]: 333 nM; IC50 [3]: 72 nM |
| SIIPSGPLK |  |  | IC50 [7]: 108 nM; IC50 [4]: 14 nM; IC50 [5]: 4290 nM |
| SLLTEVETYV | 38 |  |  |
| SLPFQNIHPV | 96 |  |  |
| SMIEAESSV | 160 |  |  |
| SPGMMMGMF |  | 137 |  |
| SPKGVEESSI |  | 215 |  |
| SPYNSRFESV |  | 41.4 |  |
| STDTVDTVLEK |  |  | IC50 [3]: 90 nM |
| SVRNGTYDYPK |  |  | IC50 [3]: 43 nM |
| TMVMELVRMIK |  |  | IC50 [4]: 124 nM; IC50 [5]: 1290 nM; IC50 [3]: 194 nM |
| TPLGAINSSL |  | 34.9 |  |
| VLLVSLGAI | 290 |  |  |
| VPASRYLTDM |  | 13.6 |  |
| WILDRLFFK |  |  | IC50 [3]: 7.6 nM |
| WMMAMKYPI | 72 |  |  |
| YPKLKNSYV |  | 176 |  |
